Target: dCas9 (SpCas9 D10A/H840A) D10A;H840A (Streptococcus pyogenes) (UniProt Q99ZW2)
Assay: SPR
Conditions: SPR: PBS, 0.005% Tween-20, 25 C, BLI: PBS, 0.005% Tween-20, 1 mM MgCl2, 50 ug/ml heparin, SwitchSENSE: 20 mM Tris pH 7.4, 100 mM KCl, 5 mM MgCl2, 0.01% …

Row | Substance | Kd (DNA with 7 RNA residues (1,15,16,19,22,23,24)) | Kd (dCas9 immobilised, 1.2-100 nM titration) | Kd (dCas9 immobilised, kinetic 1:1 fit)
1 | AGCACTGCACGCCGUAGGUCGUUUTAGAGCTATGCTGTTTTG [GFP cr1 crHyb with tracrRNA] | < 1 nM |  | 
2 | tracrRNA (88 nt) |  | 6.2 nM | 0.308 nM
